Results on 14 molecules are retold here after article PMC314469, “Protein Interaction Networks by Proteome Peptide Scanning” (PLoS Biology, 2004).

What all share (test): SPOT array
The target in test [1] is T1, Boi1 SH3 (BOI1_YEAST), P38041.
T1 chain: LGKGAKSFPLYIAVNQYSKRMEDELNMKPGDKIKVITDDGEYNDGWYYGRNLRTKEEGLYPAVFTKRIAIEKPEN

Test [2] addresses T2, Yfr024 SH3 (LSB3_YEAST), P43603.
T2 chain: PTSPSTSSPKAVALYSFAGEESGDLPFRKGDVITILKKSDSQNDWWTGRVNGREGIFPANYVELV

In test [3] the target is T3, Rvs167 SH3 (RV167_YEAST), P39743.
T3 chain: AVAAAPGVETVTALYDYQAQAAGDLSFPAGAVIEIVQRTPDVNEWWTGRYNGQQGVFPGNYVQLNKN

The target in test [4] is Sho1 SH3 (SHO1_YEAST), P40073.
Chain of Sho1 SH3 (SHO1_YEAST), P40073 (P40073 295-366): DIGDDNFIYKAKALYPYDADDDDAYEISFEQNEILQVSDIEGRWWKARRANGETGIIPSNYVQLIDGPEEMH
For test [5], the target named is T4, Myo5 SH3 (MYO5_YEAST), Q04439.
T4 chain: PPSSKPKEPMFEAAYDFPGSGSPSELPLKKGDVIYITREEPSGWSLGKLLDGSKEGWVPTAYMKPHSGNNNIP

In test [6] the target is T5, Boi2 SH3 (BOI2_YEAST), P39969.
T5 chain: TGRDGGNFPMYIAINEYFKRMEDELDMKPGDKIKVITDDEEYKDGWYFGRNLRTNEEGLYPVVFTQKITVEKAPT

Test [7] concerns the target T6, Yhr016c SH3 (YSC84_YEAST), P32793.
T6 chain: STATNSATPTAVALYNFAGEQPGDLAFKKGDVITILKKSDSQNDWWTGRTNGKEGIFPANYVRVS

On to SYISRKYPRAPAFI [YMR320W 69-82], for which the normalised SPOT signal, Boehringer light units (BLU); mean over the file's lines of this peptide turned out to be 3080 in test [1]; 212 in test [2]; 100 in test [3]; 50 in test [4]; 740 in test [5]; 32.8 in test [6]. The same molecule had a normalised SPOT signal, Boehringer light units (BLU); mean over the file's lines of this peptide in test [7] of 28.8.
SRYLKDHPNLPTPE [YOR353C 203-216]: the normalised SPOT signal, Boehringer light units (BLU); mean over the file's lines of this peptide in test [1] worked out at 208; in test [2] it was 99.8; in test [3], 104; in test [4], 94.1; in test [5] it was 69.2; in test [6], 0. For the same molecule, the normalised SPOT signal, Boehringer light units (BLU); mean over the file's lines of this peptide in test [7] is 23.3.
For SRSKRSKPLPPQLL [YJL095W 840-853], the normalised SPOT signal, Boehringer light units (BLU); mean over the file's lines of this peptide in test [1] is 685; in test [2] it was 411; in test [3], 159; in test [4], 1740; in test [5], 884; in test [6], 10.6. The normalised SPOT signal, Boehringer light units (BLU); mean over the file's lines of this peptide in test [7] was determined as 10.4.
For SQKKKALPKQPKAS [YDR028C 871-884], the normalised SPOT signal, Boehringer light units (BLU); mean over the file's lines of this peptide turned out to be 1060 in test [1]; 307 in test [2]; 186 in test [3]; 3210 in test [4]; 493 in test [5]; 29.5 in test [6]. Moreover, in test [7], the normalised SPOT signal, Boehringer light units (BLU); mean over the file's lines of this peptide turned out to be 61.2.
For the molecule SRVTRKRPREPKST [YBL111C 334-347], the normalised SPOT signal, Boehringer light units (BLU); mean over the file's lines of this peptide in test [1] amounted to 794; in test [2], 674; in test [3], 162; in test [4] it was 95; in test [5] it was 829; in test [6], 40.5. The molecule also returned a normalised SPOT signal, Boehringer light units (BLU); mean over the file's lines of this peptide in test [7] of 49.5.
For SVSEKTNPSSPSVS [YHR061C 244-257], the normalised SPOT signal, Boehringer light units (BLU); mean over the file's lines of this peptide in test [1] came to 124; in test [2], 0; in test [3], 2; in test [4], 111; in test [5], 127; in test [6] it was 29.4. The normalised SPOT signal, Boehringer light units (BLU); mean over the file's lines of this peptide in test [7] was 12.6.
SVNIKSWPLKPSNF [YNL226W 113-126]: the normalised SPOT signal, Boehringer light units (BLU); mean over the file's lines of this peptide turned out to be 76.2 in test [1]; 58.3 in test [2]; 61.7 in test [3]; 49.8 in test [4]; 56.5 in test [5]; 0 in test [6]. The same molecule gave a normalised SPOT signal, Boehringer light units (BLU); mean over the file's lines of this peptide in test [7] of 22.6.
Consider SYMDKIYPDLPNDK [YFL047W 497-510], for which the normalised SPOT signal, Boehringer light units (BLU); mean over the file's lines of this peptide came out at 221 in test [1]; 224 in test [2]; 75.3 in test [3]; 138 in test [4]; 83 in test [5]; 22.8 in test [6]. The normalised SPOT signal, Boehringer light units (BLU); mean over the file's lines of this peptide in test [7] was 37.2.
As for SVDPKNYPDAPLEG [YKL215C 38-51], the normalised SPOT signal, Boehringer light units (BLU); mean over the file's lines of this peptide in test [1] turned out to be 114; in test [2] it was 48.2; in test [3], 17.6; in test [4] it was 28.2; in test [5], 91.1; in test [6], 24.7. In addition, in test [7], the normalised SPOT signal, Boehringer light units (BLU); mean over the file's lines of this peptide was 46.1.
Turning to SSVSKLKPSLPNKL [YPL242C 73-86], the normalised SPOT signal, Boehringer light units (BLU); mean over the file's lines of this peptide was determined as 332 in test [1]; 1380 in test [2]; 176 in test [3]; 30.7 in test [4]; 418 in test [5]; 50.5 in test [6]. The same molecule came in with a normalised SPOT signal, Boehringer light units (BLU); mean over the file's lines of this peptide in test [7] of 39.2.
For the molecule STDHRGTPANPGRV [YER163C 43-56], the normalised SPOT signal, Boehringer light units (BLU); mean over the file's lines of this peptide is 26.3 in test [1]; 6.2 in test [2]; 23.6 in test [3]; 60.8 in test [4]; 257 in test [5]; 0 in test [6]. This molecule also had a normalised SPOT signal, Boehringer light units (BLU); mean over the file's lines of this peptide in test [7] of 30.5.
As for TARNKKSPGGPRQR [YLR244C 372-385], the normalised SPOT signal, Boehringer light units (BLU); mean over the file's lines of this peptide in test [1] came out at 273; in test [2] it was 423; in test [3], 84; in test [4], 109; in test [5], 593; in test [6], 45.9. This molecule registered a normalised SPOT signal, Boehringer light units (BLU); mean over the file's lines of this peptide in test [7] of 28.9.
Take STNAKKDPFPPPKD [YGR140W 417-430]: the normalised SPOT signal, Boehringer light units (BLU); mean over the file's lines of this peptide turned out to be 33 in test [1]; 52.1 in test [2]; 39.8 in test [3]; 85 in test [4]; 198 in test [5]; 0.9 in test [6]. This molecule also came in with a normalised SPOT signal, Boehringer light units (BLU); mean over the file's lines of this peptide in test [7] of 26.7.
As for SSKIRPTPRKPSRM [YER118C 4-17], the normalised SPOT signal, Boehringer light units (BLU); mean over the file's lines of this peptide in test [1] was found to be 982; in test [2], 9730; in test [3] it was 7920; in test [4], 144; in test [5], 673; in test [6], 58.4. Moreover, the normalised SPOT signal, Boehringer light units (BLU); mean over the file's lines of this peptide in test [7] came out at 697.
